Source: publication PMC3376891 (Cell, 2012)

Legend:
[1] = salt-free buffer; ref Bowie and Sauer, 1989; cited from earlier work
[2] = Far-UV CD spectroscopy of peptides; assay type: physicochemical; settings: aqueous solution / buffer (Figure S2D)

Substance	Unfolding behavior of Arc upon dilution [1]	Secondary structure by far-UV CD [2]
Arc: 55 aa Arc repressor, a client protein of both chaperones (MKGMSKMPQFNLRWPREVLDLVRKVAEENGRSVNSEIYQRVMESFKKEGRIGA; UniProt P03050 1-53, looked up)	rapidly dissociate and slowly unfold upon dilution into salt-free buffer without forming aggregates	–
neuropeptide Y [Pep1]	–	α helix
